The results in this text go back to PMC8249609 (Cell Research, 2021).

The chains are these.
B2: cartilage oligomeric matrix protein with a C-terminal His-tag (COMP-His) (natural protein)
chain: not shown
notes: cartilage oligomeric matrix protein, mouse, cDNA NM_016685.2; secreted into the conditioned medium of Sf9 cells; also called purified COMP; pentameric COMP protein

Data set [1] deals with T1, YFP-tagged AT1 receptor ( (human AT1 or mouse AT1a …, UniProt P30556 1-359)).
T1 construct: also called AT1-YFP; Flag-tagged AT1-YFP; source: HEK293T, transfected, in cells
T1 sequence (looked up): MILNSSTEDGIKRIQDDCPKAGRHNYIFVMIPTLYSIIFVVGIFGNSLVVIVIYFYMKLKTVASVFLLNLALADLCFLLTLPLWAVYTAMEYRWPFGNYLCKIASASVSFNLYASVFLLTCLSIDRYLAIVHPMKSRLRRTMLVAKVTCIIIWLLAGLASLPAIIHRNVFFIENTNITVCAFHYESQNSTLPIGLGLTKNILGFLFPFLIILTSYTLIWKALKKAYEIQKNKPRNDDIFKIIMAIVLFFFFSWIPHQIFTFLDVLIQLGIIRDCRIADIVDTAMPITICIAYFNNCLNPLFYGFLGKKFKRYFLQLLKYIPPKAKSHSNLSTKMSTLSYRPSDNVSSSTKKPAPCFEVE
In words: FRET or BRET; as a12, cells pre-incubated with purified COMP (100 nM) for 30 min before AngII. Conditions: partners not purified. (Bioluminescence resonance energy transfer reports proximity on the nanometre scale.)

The target of data set [2] is T1, YFP-tagged AT1 receptor. The data set can be described thus: FRET or BRET; HEK293T cells co-transfected with AT1-YFP and β-arrestin-1-RLuc or β-arrestin-2-RLuc; vehicle, then increasing AngII for 5 min; BRET ratio YFP/RLuc. Conditions: partners not purified.
Data set [3] deals with the molecule itself. In words: SEC + native gel or EMSA; purified COMP; gel filtration chromatography and non-reduced native PAGE followed by western blotting; pentamer. For orientation: A gel shift assay detects complexes by their altered migration in electrophoresis.
Data set [4] deals with the molecule itself. In words: native gel or EMSA; COMP-RLuc; 6% native PAGE without SDS and β-mercaptoethanol is the paper's method for the pentameric form of COMP; shown in Supplementary Fig. S11a.
Data set [5] has as its target B2. In words: SPR; BiaCore 8 K; AT1 amine-coupled to a CM5 chip (~4500 RU); analyte in two-fold dilutions (COMP 0.43–110 nM), 120 s association, 200 s dissociation; 10 mM HEPES pH 7.4, 150 mM NaCl, 0.05% P20, 0.01% DDM, 0.002% CHS; 1:1 binding model. The note with it: both partners purified.
In data set [6] the target is T2, MBP-fusion protein of the COMP EGF domain (mouse, UniProt Q9R0G6 84-261).
T2 construct: cartilage oligomeric matrix protein, mouse, EGF repeat domain; Vector pMAL-p5x; also called MBP-COMP-EGF; source: E. coli BL21, purified
T2 sequence (looked up): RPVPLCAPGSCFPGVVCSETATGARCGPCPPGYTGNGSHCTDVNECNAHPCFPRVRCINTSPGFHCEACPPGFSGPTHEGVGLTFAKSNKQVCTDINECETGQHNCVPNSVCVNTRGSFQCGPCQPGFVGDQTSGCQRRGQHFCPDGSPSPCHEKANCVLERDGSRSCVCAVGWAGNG
In words: pull-down; MBP fusion proteins of COMP domains and GST-fused AT1a N-terminus, equimolar, 4 °C 2 h; amylose resin; western blot with anti-GST. The note with it: both partners purified.

B1: β-arrestin-1 fused with Renilla luciferase (natural protein, UniProt P49407 1-418, looked up)
chain: MGDKGTRVFKKASPNGKLTVYLGKRDFVDHIDLVDPVDGVVLVDPEYLKERRVYVTLTCAFRYGREDLDVLGLTFRKDLFVANVQSFPPAPEDKKPLTRLQERLIKKLGEHAYPFTFEIPPNLPCSVTLQPGPEDTGKACGVDYEVKAFCAENLEEKIHKRNSVRLVIRKVQYAPERPGPQPTAETTRQFLMSDKPLHLEASLDKEIYYHGEPISVNVHVTNNTNKTVKKIKISVRQYADICLFNTAQYKCPVAMEEADDTVAPSSTFCKVYTLTPFLANNREKRGLALDGKLKHEDTNLASSTLLREGANREILGIIVSYKVKVKLVVSRGGLLGDLASSDVAVELPFTLMHPKPKEEPPHREVPENETPVDTNLIELDTNDDDIVFEDFARQRLKGMKDDKEEEEDGTGSPQLNNR
notes: β-arrestin-1; also called β-arrestin-1-RLuc; source: HEK293T, transfected, in cells
Take B1: the “EC50 of AngII for the recruitment (BRET), with 100 nM COMP” value in the data set with YFP-tagged AT1 receptor [1] stood at 2.16 nM. Moreover, the “EC50 of AngII for the recruitment (BRET), vehicle” value in the data set with YFP-tagged AT1 receptor [2] turned out to be 0.89 nM. In general, stoichiometry N refers to the number of molecules, sites or subunits per partner or assembly. As to B2, the “stoichiometry N” value in data set [3] was 5.

B3: mouse COMP fused with the modified Renilla luciferase at the C-terminus (natural protein)
chain: not shown
notes: cartilage oligomeric matrix protein, mouse; also called COMP-RLuc; source: HEK293T, transfected; not shown: RLuc (modified Renilla luciferase), C-terminal, kept
As for B3, in data set [4], the “stoichiometry N” value was 5.

B4: AT1 receptor, residues 1-318, with N-terminal Flag-tag and BRIL (Flag-BRIL-AT1) (receptor, UniProt P30556 1-318, looked up)
chain: MILNSSTEDGIKRIQDDCPKAGRHNYIFVMIPTLYSIIFVVGIFGNSLVVIVIYFYMKLKTVASVFLLNLALADLCFLLTLPLWAVYTAMEYRWPFGNYLCKIASASVSFNLYASVFLLTCLSIDRYLAIVHPMKSRLRRTMLVAKVTCIIIWLLAGLASLPAIIHRNVFFIENTNITVCAFHYESQNSTLPIGLGLTKNILGFLFPFLIILTSYTLIWKALKKAYEIQKNKPRNDDIFKIIMAIVLFFFFSWIPHQIFTFLDVLIQLGIIRDCRIADIVDTAMPITICIAYFNNCLNPLFYGFLGKKFKRYFLQLLK
notes: Order on the chain as printed: Flag-tag, BRIL, AT1; Detergent-solubilised (DDM/CHS in the running buffer); also called purified AT1 receptor; AngII type 1 receptor
The Kd is the equilibrium constant for the complex coming apart. Lower therefore signals higher affinity. Regarding B4, binding in data set [5] was characterised by a dissociation constant (Kd) of 1.42 ± 0.014 nM.

B5: GST-fused N-terminus of mouse AT1a receptor (aa 1-27) (domain or fragment, UniProt P29754 1-27, looked up)
chain: MALNSSTEDGIKRIQDDCPRAGRHSYI
notes: also called GST-fused N-terminus of AT1a; source: purified (vector pGEX-6P-1; host not clearly stated)
For B5, the binding result in data set [6] was “binds”.
